Literature values in article PMC12990809.

Legend:
Assay in all cases: pulldown
Settings in all cases: 20 nM protein, 1.5 uM RNA pool; 20 mM HEPES pH 7.8, 70 mM KCl, 10 mM NaCl, 10% glycerol, 2 mM DTT, 0.1 ug/uL BSA; 30 min, 4 C (protocol of this paper; not …); cited from earlier work
[1] = molecular target: T1, PF13_0315 (Plasmodium falciparum) (UniProt Q8IDB7)
T1 sequence: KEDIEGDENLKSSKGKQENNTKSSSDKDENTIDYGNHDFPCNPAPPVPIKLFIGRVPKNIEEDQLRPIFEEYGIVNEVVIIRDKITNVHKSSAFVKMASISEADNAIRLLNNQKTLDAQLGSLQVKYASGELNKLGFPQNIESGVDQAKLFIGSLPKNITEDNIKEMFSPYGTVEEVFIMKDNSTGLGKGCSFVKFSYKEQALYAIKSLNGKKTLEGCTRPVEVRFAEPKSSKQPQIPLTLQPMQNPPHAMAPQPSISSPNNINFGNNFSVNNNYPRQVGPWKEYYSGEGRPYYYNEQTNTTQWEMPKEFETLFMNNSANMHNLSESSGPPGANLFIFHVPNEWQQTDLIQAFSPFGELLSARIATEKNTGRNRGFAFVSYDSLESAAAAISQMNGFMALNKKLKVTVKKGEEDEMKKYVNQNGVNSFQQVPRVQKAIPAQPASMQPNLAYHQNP

[2] = molecular target: T2, TVAG_302220 (Trichomonas vaginalis) (UniProt A2EGP7)
T2 sequence: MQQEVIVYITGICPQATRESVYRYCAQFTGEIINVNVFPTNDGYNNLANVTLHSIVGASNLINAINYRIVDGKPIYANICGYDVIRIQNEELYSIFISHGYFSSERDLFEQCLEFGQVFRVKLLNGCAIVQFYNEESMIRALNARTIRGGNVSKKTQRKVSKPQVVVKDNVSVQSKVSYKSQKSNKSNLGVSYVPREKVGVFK

[3] = molecular target: T3, Tb927.8.6650 (Trypanosoma brucei) (UniProt Q57TU8)
T3 sequence: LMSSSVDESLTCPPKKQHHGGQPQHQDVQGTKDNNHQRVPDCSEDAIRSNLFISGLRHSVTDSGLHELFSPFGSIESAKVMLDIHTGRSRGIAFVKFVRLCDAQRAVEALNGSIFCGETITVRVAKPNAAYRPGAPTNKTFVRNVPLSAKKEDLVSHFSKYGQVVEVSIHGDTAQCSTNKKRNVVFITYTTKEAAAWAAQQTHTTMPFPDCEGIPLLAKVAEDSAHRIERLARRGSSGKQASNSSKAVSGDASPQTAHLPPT

[4] = molecular target: T4, LmjF.32.0750 (Leishmania major) (UniProt Q4Q5K7)
T4 sequence: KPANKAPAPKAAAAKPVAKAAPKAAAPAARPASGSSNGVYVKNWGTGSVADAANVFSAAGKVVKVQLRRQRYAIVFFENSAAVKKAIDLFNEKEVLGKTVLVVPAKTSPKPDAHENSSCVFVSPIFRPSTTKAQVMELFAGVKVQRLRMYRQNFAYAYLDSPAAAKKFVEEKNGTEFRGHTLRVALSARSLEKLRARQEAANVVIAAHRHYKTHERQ

[5] = molecular target: T5, NCU08034 (Neurospora crassa) (UniProt Q7SAK7)
T5 sequence: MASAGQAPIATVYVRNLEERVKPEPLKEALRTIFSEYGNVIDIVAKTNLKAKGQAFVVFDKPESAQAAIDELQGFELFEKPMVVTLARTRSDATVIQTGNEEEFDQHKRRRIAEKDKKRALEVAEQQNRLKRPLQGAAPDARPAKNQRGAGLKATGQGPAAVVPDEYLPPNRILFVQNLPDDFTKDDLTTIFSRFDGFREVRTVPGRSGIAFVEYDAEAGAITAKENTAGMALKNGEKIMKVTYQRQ

[6] = molecular target: T6, Tb927.3.3930 N185S (Trypanosoma brucei) (UniProt Q57WC9)
T6 sequence: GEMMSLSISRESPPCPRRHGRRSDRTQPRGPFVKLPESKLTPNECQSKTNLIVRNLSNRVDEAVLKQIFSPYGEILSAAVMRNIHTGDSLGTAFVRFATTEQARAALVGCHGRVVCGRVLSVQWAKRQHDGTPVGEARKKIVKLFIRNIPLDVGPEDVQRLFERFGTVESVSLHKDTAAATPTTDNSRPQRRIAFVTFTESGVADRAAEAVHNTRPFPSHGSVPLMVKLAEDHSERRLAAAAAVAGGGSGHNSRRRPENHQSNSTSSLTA

[7] = molecular target: T7, gw1.84.45.1 (Physcomitrella patens) (UniProt A0A2K1L0S1)
T7 sequence: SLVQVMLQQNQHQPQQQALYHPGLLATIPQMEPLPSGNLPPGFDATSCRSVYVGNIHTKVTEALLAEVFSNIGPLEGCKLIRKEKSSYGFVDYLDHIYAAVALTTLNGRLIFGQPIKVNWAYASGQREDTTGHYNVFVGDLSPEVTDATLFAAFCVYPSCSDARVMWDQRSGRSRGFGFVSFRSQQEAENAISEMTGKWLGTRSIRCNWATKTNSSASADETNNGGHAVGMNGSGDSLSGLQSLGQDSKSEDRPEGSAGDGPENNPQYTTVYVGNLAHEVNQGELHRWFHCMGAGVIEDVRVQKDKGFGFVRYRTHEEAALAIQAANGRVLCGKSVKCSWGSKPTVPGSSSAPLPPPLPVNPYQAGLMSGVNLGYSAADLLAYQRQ

[8] = molecular target: T8, sf3b4 (Danio rerio) (UniProt A0ACM8Q308)
T8 sequence: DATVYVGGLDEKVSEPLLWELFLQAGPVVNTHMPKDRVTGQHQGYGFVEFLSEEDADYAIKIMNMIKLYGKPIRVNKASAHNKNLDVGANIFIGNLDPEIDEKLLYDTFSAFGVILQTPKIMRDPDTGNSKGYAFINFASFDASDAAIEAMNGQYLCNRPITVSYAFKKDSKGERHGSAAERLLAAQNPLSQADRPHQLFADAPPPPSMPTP

[9] = molecular target: Pcbp3 (Mus musculus) (UniProt P57722)
[10] = molecular target: T9, Thaps1841 (Thalassiosira pseudonana) (UniProt B8BS34)
T9 sequence: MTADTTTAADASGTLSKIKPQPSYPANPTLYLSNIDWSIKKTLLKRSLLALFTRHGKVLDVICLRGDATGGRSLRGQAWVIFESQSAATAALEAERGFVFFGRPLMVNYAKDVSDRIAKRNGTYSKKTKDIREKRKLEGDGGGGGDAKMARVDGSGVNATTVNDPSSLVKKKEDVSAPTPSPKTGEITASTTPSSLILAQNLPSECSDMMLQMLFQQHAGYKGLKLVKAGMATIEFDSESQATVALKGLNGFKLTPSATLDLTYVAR

[11] = molecular target: T10, RO3G_00049 (Rhizopus oryzae) (UniProt I1BGL5)
T10 sequence: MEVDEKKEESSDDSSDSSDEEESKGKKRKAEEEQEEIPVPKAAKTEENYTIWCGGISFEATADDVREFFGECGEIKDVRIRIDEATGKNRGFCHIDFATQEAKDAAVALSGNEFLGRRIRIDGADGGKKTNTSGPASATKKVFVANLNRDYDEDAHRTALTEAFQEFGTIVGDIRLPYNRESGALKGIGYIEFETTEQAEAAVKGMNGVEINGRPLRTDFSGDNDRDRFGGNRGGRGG

[12] = molecular target: T11, PFI1695c (Plasmodium falciparum) (UniProt Q8I2G9)
T11 sequence: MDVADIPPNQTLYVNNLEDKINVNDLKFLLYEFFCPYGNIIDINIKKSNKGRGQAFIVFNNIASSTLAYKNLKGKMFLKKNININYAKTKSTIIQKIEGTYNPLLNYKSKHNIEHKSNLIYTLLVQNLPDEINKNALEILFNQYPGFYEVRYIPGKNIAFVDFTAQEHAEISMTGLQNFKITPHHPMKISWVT

[13] = molecular target: T12, Tb927.7.5380 (Trypanosoma brucei) (UniProt Q582F3)
T12 sequence: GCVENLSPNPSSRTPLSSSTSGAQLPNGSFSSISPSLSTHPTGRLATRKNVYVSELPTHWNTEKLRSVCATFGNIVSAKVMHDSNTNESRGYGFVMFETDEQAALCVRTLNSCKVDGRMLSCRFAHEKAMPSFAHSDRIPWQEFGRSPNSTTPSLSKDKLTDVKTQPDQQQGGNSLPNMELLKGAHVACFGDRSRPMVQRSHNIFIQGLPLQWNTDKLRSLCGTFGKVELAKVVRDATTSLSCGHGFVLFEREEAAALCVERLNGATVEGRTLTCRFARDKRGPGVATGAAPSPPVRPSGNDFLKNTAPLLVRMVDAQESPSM

[14] = molecular target: T13, gw1.219.6.1 (Physcomitrella patens) (UniProt A0A2K1KNA4)
T13 sequence: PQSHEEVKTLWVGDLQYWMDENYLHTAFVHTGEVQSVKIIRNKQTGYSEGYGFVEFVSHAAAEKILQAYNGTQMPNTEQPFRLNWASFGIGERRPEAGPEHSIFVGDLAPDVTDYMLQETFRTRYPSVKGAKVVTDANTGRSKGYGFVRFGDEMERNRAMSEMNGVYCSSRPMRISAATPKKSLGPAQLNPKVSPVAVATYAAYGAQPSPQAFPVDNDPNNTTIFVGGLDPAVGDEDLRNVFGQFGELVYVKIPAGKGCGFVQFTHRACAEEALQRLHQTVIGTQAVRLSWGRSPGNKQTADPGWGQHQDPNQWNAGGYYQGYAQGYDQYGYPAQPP

[15] = molecular target: T14, PFI1435w (Plasmodium falciparum) (UniProt C0H570)
T14 sequence: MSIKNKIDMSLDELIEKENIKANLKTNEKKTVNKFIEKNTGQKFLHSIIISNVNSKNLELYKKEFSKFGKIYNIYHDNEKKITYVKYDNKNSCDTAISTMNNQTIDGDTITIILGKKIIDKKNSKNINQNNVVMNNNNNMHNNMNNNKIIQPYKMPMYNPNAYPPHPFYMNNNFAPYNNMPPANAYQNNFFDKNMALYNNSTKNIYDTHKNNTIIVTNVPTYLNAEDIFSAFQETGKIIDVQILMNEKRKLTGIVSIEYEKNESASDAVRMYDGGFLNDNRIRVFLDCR

[16] = molecular target: T15, Tb09.211.0560 (Trypanosoma brucei) (UniProt Q38EA2)
T15 sequence: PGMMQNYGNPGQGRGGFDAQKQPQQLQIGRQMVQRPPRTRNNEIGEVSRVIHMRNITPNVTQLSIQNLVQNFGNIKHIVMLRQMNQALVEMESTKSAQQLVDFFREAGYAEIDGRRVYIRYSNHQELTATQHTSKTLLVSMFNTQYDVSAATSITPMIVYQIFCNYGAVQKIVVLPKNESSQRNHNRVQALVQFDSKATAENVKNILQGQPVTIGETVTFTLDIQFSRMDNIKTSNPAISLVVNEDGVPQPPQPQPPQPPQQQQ

[17] = molecular target: T16, e_gw1.81.40.1 (Physcomitrella patens) (UniProt A0A2K1J988)
T16 sequence: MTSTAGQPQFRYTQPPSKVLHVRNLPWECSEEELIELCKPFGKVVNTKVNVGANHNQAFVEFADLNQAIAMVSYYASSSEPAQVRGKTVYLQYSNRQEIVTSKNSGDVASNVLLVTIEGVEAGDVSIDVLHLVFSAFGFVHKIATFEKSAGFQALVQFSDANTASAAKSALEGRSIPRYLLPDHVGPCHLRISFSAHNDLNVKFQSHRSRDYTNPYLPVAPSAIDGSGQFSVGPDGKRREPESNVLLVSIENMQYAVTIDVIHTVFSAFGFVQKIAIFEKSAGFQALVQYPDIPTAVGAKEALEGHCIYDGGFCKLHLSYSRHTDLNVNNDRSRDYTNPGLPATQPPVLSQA

[18] = molecular target: T17, LmjF.18.0180 (Leishmania major) (UniProt Q4QE24)
T17 sequence: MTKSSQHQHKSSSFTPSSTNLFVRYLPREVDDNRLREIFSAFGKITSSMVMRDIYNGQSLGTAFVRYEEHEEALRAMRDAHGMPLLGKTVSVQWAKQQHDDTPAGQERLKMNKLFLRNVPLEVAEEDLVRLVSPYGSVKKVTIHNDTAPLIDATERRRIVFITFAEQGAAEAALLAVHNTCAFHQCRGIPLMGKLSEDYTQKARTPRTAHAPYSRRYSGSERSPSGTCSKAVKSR

Pcbp3 (Mus musculus), sequence (P57722 33-371): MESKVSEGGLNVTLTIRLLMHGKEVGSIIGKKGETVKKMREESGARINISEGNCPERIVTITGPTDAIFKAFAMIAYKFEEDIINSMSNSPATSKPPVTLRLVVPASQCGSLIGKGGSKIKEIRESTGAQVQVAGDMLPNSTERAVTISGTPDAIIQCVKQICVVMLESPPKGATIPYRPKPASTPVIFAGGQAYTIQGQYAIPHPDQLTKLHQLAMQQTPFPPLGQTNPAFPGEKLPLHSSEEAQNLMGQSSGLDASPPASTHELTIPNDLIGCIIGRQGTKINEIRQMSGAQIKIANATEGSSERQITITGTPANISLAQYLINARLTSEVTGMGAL

Sequence: UUACAU [RNAcompete motif RNCMPT00200]
- binding signal (z-score (mean of top ten 7-mers)) [1]: 7.45

Sequence: CAAUAA [RNAcompete motif RNCMPT00226]
- binding signal (z-score (mean of top ten 7-mers)) [2]: 12.9

Sequence: UAUACU [RNAcompete motif RNCMPT00219]
- binding signal (z-score (mean of top ten 7-mers)) [3]: 15.8

Sequence: UACACG [RNAcompete motif RNCMPT00223]
- binding signal (z-score (mean of top ten 7-mers)) [4]: 10.4

Sequence: AGCACA [RNAcompete motif RNCMPT00209]
- binding signal (z-score (mean of top ten 7-mers)) [5]: 11.1

Sequence: CAUUGU [RNAcompete motif RNCMPT00216]
- binding signal (z-score (mean of top ten 7-mers)) [6]: 18.7

Sequence: UUUUUU [RNAcompete motif RNCMPT00228]
- binding signal (z-score (mean of top ten 7-mers)) [7]: 12.9

Sequence: CAAAAG [RNAcompete motif RNCMPT00224]
- binding signal (z-score (mean of top ten 7-mers)) [8]: 28.4

Sequence: CUUUCC [RNAcompete motif RNCMPT00215]
- binding signal (z-score (mean of top ten 7-mers)) [9]: 6.23

Sequence: ACACGC [RNAcompete motif RNCMPT00225]
- binding signal (z-score (mean of top ten 7-mers)) [10]: 6.33

Sequence: AGGGGAA [RNAcompete motif RNCMPT00205]
- binding signal (z-score (mean of top ten 7-mers)) [11]: 9.5

Sequence: CCUGCAC [RNAcompete motif RNCMPT00203]
- binding signal (z-score (mean of top ten 7-mers)) [12]: 9.07

Sequence: UUAUU [RNAcompete motif RNCMPT00218]
- binding signal (z-score (mean of top ten 7-mers)) [13]: 7.15

Sequence: UGUUUUU [RNAcompete motif RNCMPT00229]
- binding signal (z-score (mean of top ten 7-mers)) [14]: 6.94

Sequence: UUUUUU [RNAcompete motif RNCMPT00202]
- binding signal (z-score (mean of top ten 7-mers)) [15]: 6.28

Sequence: CUUUCU [RNAcompete motif RNCMPT00220]
- binding signal (z-score (mean of top ten 7-mers)) [16]: 6.05

Sequence: AACCUUU [RNAcompete motif RNCMPT00206]
- binding signal (z-score (mean of top ten 7-mers)) [17]: 6.39

Sequence: CAUUUU [RNAcompete motif RNCMPT00212]
- binding signal (z-score (mean of top ten 7-mers)) [18]: 30.2
